B4: Arabidopsis cryptochrome 2 (CRY2) (receptor)
chain: MKMDKKTIVWFRRDLRIEDNPALAAAAHEGSVFPVFIWCPEEEGQFYPGRASRWWMKQSLAHLSQSLKALGSDLTLIKTHNTISAILDCIRVTGATKVVFNHLYDPVSLVRDHTVKEKLVERGISVQSYNGDLLYEPWEIYCEKGKPFTSFNSYWKKCLDMSIESVMLPPPWRLMPITAAAEAIWACSIEELGLENEAEKPSNALLTRAWSPGWSNADKLLNEFIEKQLIDYAKNSKKVVGNSTSLLSPYLHFGEISVRHVFQCARMKQIIWARDKNSEGEESADLFLRGIGLREYSRYICFNFPFTHEQSLLSHLRFFPWDADVDKFKAWRQGRTGYPLVDAGMRELWATGWMHNRIRVIVSSFAVKFLLLPWKWGMKYFWDTLLDADLECDILGWQYISGSIPDGHELDRLDNPALQGAKYDPEGEYIRQWLPELARLPTEWIHHPWDAPLTVLKASGVELGTNYAKPIVDIDTARELLAKAISRTREAQIMIGAAPDEIVADSFEALGANTIKEPGLCPSVSSNDQQVPSAVRYNGSKRVKPEEEEERDMKKSRGFDERELFSTAESSSSSSVFFVSQSCSLASEGKNLEGIQDSSDQITTSLGKNGCK
notes: also called AT1G04400

What was measured:
FLUC-CRY2 (Arabidopsis) = FLUC-CRY2 (Arabidopsis) (UniProt Q96524); assay: quantitative co-IP (dual-luciferase), anti-Flag beads, HEK293T cells, blue light 30 µmol m^-2 s^-1
[1] = molecular target: the molecule itself; assay: co-IP, HEK293T cells, control experiment
[2] = molecular target: B4; assay: summary of the examples
Flag-CRY2 = molecular target: T1, Flag-CRY2 (Arabidopsis, UniProt Q96524 1-612); assay: co-IP with antibody to Flag, HEK293T cells, dark
T1 construct: not shown: Flag tag
Source text: Homodimers are the physiologically active form of plant CRYs (8, 9), but the effect of light on CRY dimerization has not been detected in previous studies (9, 20). This could be explained by, among other interpretations, light-independent CRY dimerization or masking effects of regulatory proteins, such as BICs, on the light-dependent CRY dimerization (9, 20). We reexamined the bluelight dependence of CRY2 dimerization using multiple approaches. In the first experiment, we coexpressed Flag-CRY2 and Myc-CRY2 in HEK293T cells (21-24) and tested the interaction between the two differentially tagged CRY2s by co-IP assay. In the absence of blue light, antibody to Flag coprecipitated little Myc-CRY2 from HEK293T cells expressing similar amounts of Flag-CRY2 and Myc-CRY2 (FIG. 4B and FIG. S12A of Wang et al).

[3] = molecular target: T2, GFP-CRY2 (CRY2 fused to green fluorescent protein) (Arabidopsis, UniProt Q96524 1-612); assay: co-IP with GFP-Trap-A from etiolated seedlings co-expressing Myc-CRY2 and GFP-CRY2, blue light 20 sec to 10 min (FIG. 9A)
T2 construct: Expressed in Arabidopsis plants together with Myc-CRY2; not shown: green fluorescent protein
Source text: GFP-Trap-A were used to immunoprecipitate GFP-CRY2. GFP-CRY2 (IP signal) and Myc-CRY2 (co-IP signal) were detected by GFP or Myc antibody, respectively. […] HEK293T cells co-expressing FLUC-CRY2 and REN-CRY2 were exposed to blue light (30 μmol·m⁻²·s⁻¹) for the time indicated, lysed, aliquots removed for the measurement of ATL (Adjusted Total Luminescence), and FLUC-CRY2 precipitated by anti-Flag antibody conjugated beads. Photodimerization of CRY2 was quantified by the dual-luciferase assay to calculate the Normalized Dimerization Ratio (NDR) by the formula: NDR=[(REN/LUC)L/(REN/LUC)D]/ATL, where LUC is the LUC luminescence detected for the precipitated FLUC-CRY2, REN is the REN luminescence detected for the co-precipitated REN-CRY2. (REN/LUC)L or (REN/LUC)D were measured in cells exposed to light or darkness, respectively. ATL (Adjusted Total Luminescence) is the cell volume-adjusted sum of LUC and REN luminescence of the cell lysates before immunoprecipitation, in which REN luminescence is converted to the LUC equivalent by the standard curve prepared by analyses of the LUC-REN fusion protein (not shown). ATL represents concentration of the CRY2 protein. […] Flag-CRY2 (IP signal) and Myc-CRY2 or GFP-BIC1 (co-IP signals) were detected by Flag and Myc or GFP antibody, respectively. […]

[4] = molecular target: the molecule itself; assay: yeast β-gal assay (FIG. 4A); also immunoblots of HEK293FT lysates (4B, 4C) and plant nuclear proteins (4D, 4E) after blue light
Source text: FIG. 4 provides data showing redox-dependent CRY dimerization, and blue-light-induced CRY and BIC interaction. (FIG. 4A) The β-galactosidase (β-gal) assay showing the blue-light-dependent formation of CRY2 dimer. Yeast cells were kept in darkness (D) or illuminated with blue light (B5, 5 μmol m⁻² s⁻¹; B25, 25 μmol m⁻² s⁻¹; B50, 50 μmol m⁻² s⁻¹) for the indicated time. (FIG. 4B) Immunoblot showing the blue-light-induced dimerization of CRY2 expressed in HEK293FT (H293) cells. The cells were lysed, divided into 12 samples and irradiated by blue light (40 μmol m⁻²s⁻¹) for the indicated durations. For β-mercaptoethanol (2-Me) treatment, 6 samples were added with 2-Me to 5% (v/v), and then all the samples were analyzed by western blot using anti-CRY2 antibody. CRY2, monomeric CRY2; (CRY2)2, CRY2 dimer; (CRY2)ₙ, CRY2 oligomer. (FIG. 4C) The H293 cell lysate were prepared in dark, irradiated with blue light for the durations indicated. For the NEM treatment, the samples were added with NEM (50 mM), and then the samples were analyzed by western blot using anti-CRY2 antibody. (FIGS. 4D and E) Dimerization and oligomerization of CRY2 proteins are blue light-induced in vivo. […]

Flag-hCRY1 = molecular target: T3, Flag-hCRY1 (human, UniProt Q16526 1-586); assay: co-IP with anti-Flag beads, HEK293T cells (FIG. 11)
T3 construct: this is the CRY1 form; not shown: Flag tag
T3 sequence (looked up): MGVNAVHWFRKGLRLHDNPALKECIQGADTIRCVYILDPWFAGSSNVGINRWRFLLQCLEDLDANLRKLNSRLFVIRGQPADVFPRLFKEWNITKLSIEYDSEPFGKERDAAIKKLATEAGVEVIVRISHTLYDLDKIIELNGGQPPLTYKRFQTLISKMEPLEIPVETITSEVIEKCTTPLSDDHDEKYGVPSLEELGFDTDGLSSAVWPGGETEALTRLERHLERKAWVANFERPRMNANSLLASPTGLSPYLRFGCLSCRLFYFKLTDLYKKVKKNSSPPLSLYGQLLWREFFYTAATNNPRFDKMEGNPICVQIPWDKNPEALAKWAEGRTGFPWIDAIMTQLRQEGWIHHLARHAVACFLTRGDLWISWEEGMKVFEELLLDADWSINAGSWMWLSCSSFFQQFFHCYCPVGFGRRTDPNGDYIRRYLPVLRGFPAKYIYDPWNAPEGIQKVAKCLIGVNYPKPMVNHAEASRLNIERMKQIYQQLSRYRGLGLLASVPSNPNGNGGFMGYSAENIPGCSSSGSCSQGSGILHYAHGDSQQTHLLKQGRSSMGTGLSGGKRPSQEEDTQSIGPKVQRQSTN
Protocol: In FIG. 11, HEK293T cells coexpressing Flag-hCRY, Myc-hCRY and GFP-BIC1 or GFP were exposed to 100 μmol m⁻² s⁻¹ blue light for 2 hours (+) or kept in the dark (−). Anti-Flag antibody conjugated beads were used to perform the immunoprecipitations. Flag-hCRY (IP signal) and Myc-hCRY or GFP-BIC1 (co-IP signals) were detected by Flag and Myc or GFP antibody, respectively. […]

Molecule: REN-CRY2
- Maximum Photodimerization (Dm, maximum Normalized Dimerization Ratio) (FLUC-CRY2 (Arabidopsis)): 4.7
- Rate of Photodimerization (D1/2) (FLUC-CRY2 (Arabidopsis)): 1 min

B1: human cryptochrome 1 (hCRY1) (other, UniProt Q16526 1-586, looked up)
chain: MGVNAVHWFRKGLRLHDNPALKECIQGADTIRCVYILDPWFAGSSNVGINRWRFLLQCLEDLDANLRKLNSRLFVIRGQPADVFPRLFKEWNITKLSIEYDSEPFGKERDAAIKKLATEAGVEVIVRISHTLYDLDKIIELNGGQPPLTYKRFQTLISKMEPLEIPVETITSEVIEKCTTPLSDDHDEKYGVPSLEELGFDTDGLSSAVWPGGETEALTRLERHLERKAWVANFERPRMNANSLLASPTGLSPYLRFGCLSCRLFYFKLTDLYKKVKKNSSPPLSLYGQLLWREFFYTAATNNPRFDKMEGNPICVQIPWDKNPEALAKWAEGRTGFPWIDAIMTQLRQEGWIHHLARHAVACFLTRGDLWISWEEGMKVFEELLLDADWSINAGSWMWLSCSSFFQQFFHCYCPVGFGRRTDPNGDYIRRYLPVLRGFPAKYIYDPWNAPEGIQKVAKCLIGVNYPKPMVNHAEASRLNIERMKQIYQQLSRYRGLGLLASVPSNPNGNGGFMGYSAENIPGCSSSGSCSQGSGILHYAHGDSQQTHLLKQGRSSMGTGLSGGKRPSQEEDTQSIGPKVQRQSTN
notes: Homodimerization tested with differently tagged copies (Flag-hCRY and Myc-hCRY) co-expressed in HEK293T cells; also called human CRY1
- binding result [1]: binds

B2: Blue-light Inhibitor of Cryptochromes 2 (BIC2) (other)
chain: MKNTNLPEETKEPISPGSSHRKQNKTGTKTCFPETTVLSGRDRLKRHREEVAGKVPIPDSWGKEGLLMGWMDFSTFDAAFTSSQIVSARAALMADSGDDAGARGSRPQRLRVESSC
notes: also called Arabidopsis BIC2; AT3G44450
- binding result [2]: binds

B3: Myc-CRY2 (other)
chain: MKMDKKTIVWFRRDLRIEDNPALAAAAHEGSVFPVFIWCPEEEGQFYPGRASRWWMKQSLAHLSQSLKALGSDLTLIKTHNTISAILDCIRVTGATKVVFNHLYDPVSLVRDHTVKEKLVERGISVQSYNGDLLYEPWEIYCEKGKPFTSFNSYWKKCLDMSIESVMLPPPWRLMPITAAAEAIWACSIEELGLENEAEKPSNALLTRAWSPGWSNADKLLNEFIEKQLIDYAKNSKKVVGNSTSLLSPYLHFGEISVRHVFQCARMKQIIWARDKNSEGEESADLFLRGIGLREYSRYICFNFPFTHEQSLLSHLRFFPWDADVDKFKAWRQGRTGYPLVDAGMRELWATGWMHNRIRVIVSSFAVKFLLLPWKWGMKYFWDTLLDADLECDILGWQYISGSIPDGHELDRLDNPALQGAKYDPEGEYIRQWLPELARLPTEWIHHPWDAPLTVLKASGVELGTNYAKPIVDIDTARELLAKAISRTREAQIMIGAAPDEIVADSFEALGANTIKEPGLCPSVSSNDQQVPSAVRYNGSKRVKPEEEEERDMKKSRGFDERELFSTAESSSSSSVFFVSQSCSLASEGKNLEGIQDSSDQITTSLGKNGCK
notes: not shown: Myc tag
- binding result (Flag-CRY2): binds
- binding result [3]: binds

Molecule: B4
- binding result [4]: binds

B5: GFP-BIC1 (other)
chain: MMNIDDTTSPMAHPIGPSQPPSDQTKQDPPSLPQEAASSVSADKKDLALLEEKPKQSQEEDRVDTGRERLKKHRREIAGRVWIPEIWGQEELLKDWIDCSTFDTCLVPAGISSARTALVEEARRAASASGGLHNRCLILR
notes: Expressed in HEK293T cells; not shown: GFP
- binding result (Flag-hCRY1): binds

B6: Blue-light Inhibitor of Cryptochromes 1 (BIC1) (other)
chain: MMNIDDTTSPMAHPIGPSQPPSDQTKQDPPSLPQEAASSVSADKKDLALLEEKPKQSQEEDRVDTGRERLKKHRREIAGRVWIPEIWGQEELLKDWIDCSTFDTCLVPAGISSARTALVEEARRAASASGGLHNRCLILR
notes: also called Arabidopsis BIC1; AT3G52740
- binding result [2]: binds

Source: patent US20190300875A1 (University of California, published 2019)
